In patent publication US20150306241:

Target: T1, PEG2000-peptide-PTX
T1 chain: GPLGIAGQ

B1: Human active MMP2 protein (MW 66,000 Da) (protein)
chain: YNFFPRKPKWDKNQITYRIIGYTPDLDPETVDDAFARAFQVWSDVTPLRFSRIHDGEADIMINFGRWEHGDGYPFDGKDGLLAHAFAPGTGVGGDSHFDDDELWTLGEGQVVRVKYGNADGEYCKFPFLFNGKEYNSCTDTGRSDGFLWCSTTYNFEKDGKYGFCPHEALFTMGGNAEGQPCKFPFRFQGTSYDSCTTEGRTDGYRWCGTTEDYDRDKKYGFCPETAMSTVGGNSEGAPCVFPFTFLGNKYESCTSAGRSDGKMWCATTANYDDDRKWGFCPDQGYSLFLVAAHEFGHAMGLEHSQDPGALMAPIYTYTKNFRLSQDDIKGIQELYGASPDIDLGTGPTPTLGPVTPEICKQDIVFDGIAQIRGEIFFFKDRFIWRTVTPRDKPMGPLLVATFWPELPEKIDAVYEAPQEEKAVFFAGNEYWIYSASTLERGYPKPLTSLGLPPDVQRVDAAFNWSKNKKTYIFAGDKFWRYNEVKKKMDPGFPKLIADAWNAIPDNLDAVVDLQGGGHSYFFKGAYYLKLENQSLKSVKFGSIKSDWLGC
- enzymatic digestion followed by TLC (5 ng/µL human MMP2): the MMP2 completely cleaved the peptide linker resulting in two digestion fragments (IAGQ-PTX and PEG-GPLG)
